Test results: patent US20240383964A1, “De Novo Designed alpha(5) beta(1) Integrin selective minibinders” (UNIVERSITY OF WASHINGTON, priority 2023, published 2024)
The star is where a group is joined. Biotin = O=C1N[C@H]2[C@H](CS[C@H]2CCCCC(=O)*)N1

How the values were obtained:
integrin α8β1 = molecular target: T1, integrin α8β1 (UniProt P53708 39-1012; P05556 21-728); test: BLI (Octet), minibinder on the sensor, integrin α8β1 in solution [panel α8β1]
T1 construct: also called a8b1
Description: (§1) Because of the large size of integrin and the distribution of integrin α5β1 on the cell surface, it was of interest to measure the affinity of the binders on the cell surface. Using wild type A562, the binding affinity of binders to α5β1 was measured, which is the only RGD binding integrin expressed in WT A562.
(§2) Prior to measurements, streptavidin-coated biosensors were first equilibrated for at least 10 min in assay buffer. Protein binders with an N-terminal biotin were immobilized onto the biosensors by dipping them into a solution with 100 nM protein until the response reached between 10% and 50% of the maximum value followed by dipping sensors into fresh buffer to establish a baseline for 120 s. Titration experiments were performed at 25 degrees Celsius while rotating at 1000 rpm. Association of integrins was allowed by dipping biosensors in solutions containing designed protein diluted in buffer until equilibrium was approached followed by dissociation by dipping the biosensors into fresh buffer solution to monitor the dissociation kinetics. In the minibinder binding cross specificity assays each biotinylated minibinder was loaded onto streptavidin biosensors in equal amounts followed by 2 min of baseline equilibration. The association and dissociation with all the different binders were allowed for 900-1500 s for each step. […]

integrin αvβ1 = molecular target: T2, integrin αvβ1 (UniProt P06756 31-992; P05556 21-728); test: BLI (Octet), minibinder on the sensor, integrin αvβ1 in solution [panel αvβ1]
T2 construct: also called avb1
Description: as §1, §2

integrin αvβ3 = molecular target: T3, integrin αvβ3 (UniProt P06756 31-992; P05106 27-718); test: BLI (Octet), minibinder on the sensor, integrin αvβ3 in solution [panel αvβ3]
T3 construct: also called avb3
Description: as §1, §2

integrin αvβ8 = molecular target: T4, integrin αvβ8 (UniProt P06756 31-992; P26012 43-684); test: BLI (Octet), minibinder on the sensor, integrin αvβ8 in solution [panel αvβ8]
T4 construct: also called avb8
T4 sequence (P06756 31-992, chain 1 of 2): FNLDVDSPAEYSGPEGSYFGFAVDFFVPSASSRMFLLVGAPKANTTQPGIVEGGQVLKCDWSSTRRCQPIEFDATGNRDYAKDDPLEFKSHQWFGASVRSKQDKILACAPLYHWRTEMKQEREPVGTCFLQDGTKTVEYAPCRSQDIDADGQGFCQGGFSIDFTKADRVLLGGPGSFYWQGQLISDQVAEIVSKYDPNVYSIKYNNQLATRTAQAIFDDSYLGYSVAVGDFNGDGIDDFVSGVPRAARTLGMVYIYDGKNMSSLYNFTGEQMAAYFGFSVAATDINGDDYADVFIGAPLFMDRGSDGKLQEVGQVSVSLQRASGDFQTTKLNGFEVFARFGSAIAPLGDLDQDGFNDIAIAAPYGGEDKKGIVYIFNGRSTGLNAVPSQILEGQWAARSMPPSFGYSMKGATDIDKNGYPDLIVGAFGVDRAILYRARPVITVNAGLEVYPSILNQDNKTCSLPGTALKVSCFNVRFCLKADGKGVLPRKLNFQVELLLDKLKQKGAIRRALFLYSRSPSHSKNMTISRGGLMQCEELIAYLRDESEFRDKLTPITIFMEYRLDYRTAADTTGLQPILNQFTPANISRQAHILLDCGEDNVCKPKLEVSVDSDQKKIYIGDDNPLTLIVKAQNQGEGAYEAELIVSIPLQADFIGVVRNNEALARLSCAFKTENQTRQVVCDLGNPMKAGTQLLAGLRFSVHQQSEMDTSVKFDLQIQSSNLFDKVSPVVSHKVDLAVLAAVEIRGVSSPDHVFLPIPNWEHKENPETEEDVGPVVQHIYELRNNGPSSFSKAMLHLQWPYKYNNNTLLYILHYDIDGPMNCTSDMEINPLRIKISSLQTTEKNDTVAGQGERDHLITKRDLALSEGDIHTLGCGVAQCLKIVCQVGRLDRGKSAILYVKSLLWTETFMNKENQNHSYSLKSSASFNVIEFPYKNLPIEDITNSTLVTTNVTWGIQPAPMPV
T4 sequence (P26012 43-684, chain 2 of 2): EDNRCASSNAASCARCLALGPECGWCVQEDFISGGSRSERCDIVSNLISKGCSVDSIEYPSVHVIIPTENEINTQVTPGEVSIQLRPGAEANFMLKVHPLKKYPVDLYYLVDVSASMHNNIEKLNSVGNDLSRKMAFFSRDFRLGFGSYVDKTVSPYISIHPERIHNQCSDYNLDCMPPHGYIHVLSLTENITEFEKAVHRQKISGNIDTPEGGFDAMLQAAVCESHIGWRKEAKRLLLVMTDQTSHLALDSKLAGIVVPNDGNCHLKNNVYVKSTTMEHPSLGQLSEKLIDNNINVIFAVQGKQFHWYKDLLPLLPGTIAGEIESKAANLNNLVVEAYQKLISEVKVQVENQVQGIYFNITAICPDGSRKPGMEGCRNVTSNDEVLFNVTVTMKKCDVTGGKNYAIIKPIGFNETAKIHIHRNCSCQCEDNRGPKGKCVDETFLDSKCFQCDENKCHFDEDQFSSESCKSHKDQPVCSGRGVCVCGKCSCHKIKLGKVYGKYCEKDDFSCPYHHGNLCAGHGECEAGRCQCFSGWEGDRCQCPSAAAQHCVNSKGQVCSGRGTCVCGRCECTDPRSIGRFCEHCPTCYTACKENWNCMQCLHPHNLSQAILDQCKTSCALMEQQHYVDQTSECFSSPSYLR
Description: as §1, §2

[1] = molecular target: T5, integrin α5β1 on the cell surface (UniProt P08648 42-1049; P05556 21-798); test: cell surface titration on wild type K562 cells, readout Binder Bound Cells (%)
T5 construct: whole, on cells; HUVECs in the functional assays; also called α5β1 on wild type K562 (printed also A562) cells; α5β1 on HUVECs
T5 sequence (P08648 42-1049, chain 1 of 2): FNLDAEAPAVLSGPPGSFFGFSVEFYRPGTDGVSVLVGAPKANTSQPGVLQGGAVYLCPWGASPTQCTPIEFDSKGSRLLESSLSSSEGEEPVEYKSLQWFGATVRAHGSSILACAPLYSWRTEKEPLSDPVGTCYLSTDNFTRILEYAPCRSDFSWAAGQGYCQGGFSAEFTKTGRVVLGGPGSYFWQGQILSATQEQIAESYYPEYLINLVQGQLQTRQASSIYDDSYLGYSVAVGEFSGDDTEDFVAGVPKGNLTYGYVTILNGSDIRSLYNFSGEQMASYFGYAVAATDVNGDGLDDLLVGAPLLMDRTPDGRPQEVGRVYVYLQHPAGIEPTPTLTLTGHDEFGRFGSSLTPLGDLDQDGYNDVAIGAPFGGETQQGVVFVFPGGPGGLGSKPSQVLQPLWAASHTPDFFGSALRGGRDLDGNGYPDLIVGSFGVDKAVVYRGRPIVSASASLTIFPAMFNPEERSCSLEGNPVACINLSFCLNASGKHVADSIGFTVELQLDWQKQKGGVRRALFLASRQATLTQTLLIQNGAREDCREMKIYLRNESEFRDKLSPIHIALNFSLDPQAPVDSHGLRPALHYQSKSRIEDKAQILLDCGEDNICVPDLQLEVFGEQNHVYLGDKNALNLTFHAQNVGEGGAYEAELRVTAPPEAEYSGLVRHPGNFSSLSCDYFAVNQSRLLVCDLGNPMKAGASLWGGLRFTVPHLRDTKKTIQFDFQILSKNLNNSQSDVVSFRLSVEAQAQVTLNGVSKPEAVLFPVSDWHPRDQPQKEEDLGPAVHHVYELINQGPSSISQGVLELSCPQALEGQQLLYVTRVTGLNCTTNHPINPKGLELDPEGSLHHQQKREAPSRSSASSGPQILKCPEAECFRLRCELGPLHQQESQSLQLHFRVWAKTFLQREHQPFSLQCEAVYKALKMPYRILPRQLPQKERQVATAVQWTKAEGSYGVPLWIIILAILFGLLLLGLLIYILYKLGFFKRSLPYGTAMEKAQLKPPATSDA
T5 sequence (P05556 21-798, chain 2 of 2): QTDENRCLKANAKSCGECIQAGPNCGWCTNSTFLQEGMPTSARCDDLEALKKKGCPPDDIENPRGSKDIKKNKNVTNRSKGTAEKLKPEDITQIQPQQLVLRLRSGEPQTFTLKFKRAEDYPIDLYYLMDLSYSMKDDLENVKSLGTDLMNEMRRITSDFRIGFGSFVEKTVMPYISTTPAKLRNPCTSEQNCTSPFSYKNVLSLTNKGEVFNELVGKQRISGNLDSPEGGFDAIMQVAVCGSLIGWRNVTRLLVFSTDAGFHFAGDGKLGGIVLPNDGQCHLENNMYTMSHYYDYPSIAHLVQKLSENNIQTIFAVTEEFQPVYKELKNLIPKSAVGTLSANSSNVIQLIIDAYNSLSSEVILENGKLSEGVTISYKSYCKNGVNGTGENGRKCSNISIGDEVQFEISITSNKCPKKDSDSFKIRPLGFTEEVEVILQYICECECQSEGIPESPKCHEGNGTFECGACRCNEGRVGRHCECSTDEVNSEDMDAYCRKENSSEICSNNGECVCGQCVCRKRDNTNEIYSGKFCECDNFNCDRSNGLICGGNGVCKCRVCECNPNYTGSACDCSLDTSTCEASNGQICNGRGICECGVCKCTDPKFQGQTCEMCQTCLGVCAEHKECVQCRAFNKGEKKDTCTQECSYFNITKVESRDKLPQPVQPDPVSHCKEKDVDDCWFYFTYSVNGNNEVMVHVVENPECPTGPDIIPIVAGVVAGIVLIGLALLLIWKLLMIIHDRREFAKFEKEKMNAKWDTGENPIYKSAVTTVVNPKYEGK

integrin α5β1 [2] = molecular target: T6, integrin α5β1 (UniProt P08648 42-995; P05556 21-728); test: BLI, integrin resting buffer (1 mM MgCl2, 1 mM CaCl2, pH 7.4), binder immobilised; BLI, integrin resting buffer pH 7.4 with 1 mM MgCl2, 1 mM CaCl2
T6 construct: also called alpha(5) beta(1) integrin; a5b1
T6 sequence (P08648 42-995, chain 1 of 2): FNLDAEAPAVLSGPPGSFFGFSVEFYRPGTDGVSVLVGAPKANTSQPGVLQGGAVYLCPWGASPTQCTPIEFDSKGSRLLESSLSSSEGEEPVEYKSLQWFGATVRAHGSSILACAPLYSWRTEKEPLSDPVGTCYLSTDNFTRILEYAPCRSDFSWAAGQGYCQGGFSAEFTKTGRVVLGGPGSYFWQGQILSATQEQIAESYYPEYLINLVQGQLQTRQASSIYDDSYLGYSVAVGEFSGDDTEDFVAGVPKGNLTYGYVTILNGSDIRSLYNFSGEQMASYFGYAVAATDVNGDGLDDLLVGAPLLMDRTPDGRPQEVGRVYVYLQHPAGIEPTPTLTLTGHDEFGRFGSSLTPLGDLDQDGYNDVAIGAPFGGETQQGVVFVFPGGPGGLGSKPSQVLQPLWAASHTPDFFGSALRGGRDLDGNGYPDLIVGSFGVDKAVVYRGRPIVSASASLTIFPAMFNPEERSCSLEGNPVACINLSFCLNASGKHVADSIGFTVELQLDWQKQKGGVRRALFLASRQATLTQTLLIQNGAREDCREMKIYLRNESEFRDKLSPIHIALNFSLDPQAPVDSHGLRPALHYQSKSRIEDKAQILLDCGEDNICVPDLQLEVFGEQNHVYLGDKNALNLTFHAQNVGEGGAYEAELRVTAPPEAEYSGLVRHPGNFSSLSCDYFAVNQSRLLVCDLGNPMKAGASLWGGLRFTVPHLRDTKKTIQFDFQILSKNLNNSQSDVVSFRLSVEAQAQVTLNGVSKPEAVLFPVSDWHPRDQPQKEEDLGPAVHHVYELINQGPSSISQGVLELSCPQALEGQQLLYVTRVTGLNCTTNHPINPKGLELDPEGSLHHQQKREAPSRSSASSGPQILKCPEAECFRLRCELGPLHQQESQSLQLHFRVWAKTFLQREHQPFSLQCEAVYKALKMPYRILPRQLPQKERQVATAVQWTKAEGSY
T6 sequence (P05556 21-728, chain 2 of 2): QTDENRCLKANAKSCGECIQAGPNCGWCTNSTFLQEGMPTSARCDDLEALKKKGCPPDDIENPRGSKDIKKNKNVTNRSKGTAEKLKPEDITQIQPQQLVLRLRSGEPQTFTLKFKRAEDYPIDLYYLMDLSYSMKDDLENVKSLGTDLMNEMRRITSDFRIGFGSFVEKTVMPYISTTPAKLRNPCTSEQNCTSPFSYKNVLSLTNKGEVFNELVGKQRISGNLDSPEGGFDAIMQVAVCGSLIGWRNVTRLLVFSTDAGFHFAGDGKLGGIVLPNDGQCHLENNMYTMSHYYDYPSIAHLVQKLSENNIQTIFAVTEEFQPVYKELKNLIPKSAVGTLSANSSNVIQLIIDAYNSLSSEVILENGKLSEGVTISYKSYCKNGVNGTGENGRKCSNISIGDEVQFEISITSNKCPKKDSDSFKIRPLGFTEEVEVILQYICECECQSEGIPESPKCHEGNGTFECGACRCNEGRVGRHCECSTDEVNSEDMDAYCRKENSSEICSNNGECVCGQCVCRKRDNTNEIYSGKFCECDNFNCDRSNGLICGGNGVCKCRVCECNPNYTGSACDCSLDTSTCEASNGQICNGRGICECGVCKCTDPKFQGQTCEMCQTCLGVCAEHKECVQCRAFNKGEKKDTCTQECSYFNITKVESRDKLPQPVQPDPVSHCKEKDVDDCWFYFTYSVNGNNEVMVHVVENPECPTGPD
Description: (§3) The binding affinity of each variant was calculated as described in Cao et al, 2022. By combining the beneficial mutations, combination libraries were constructed and screened for binding to α5β1 at an affinity as low as 200 pico-molar (FIG. 4). […] Because RGD binding depends on metal ions, the binders were tested for binding to integrin without metal ions. […] Similarly, mutating the RGD motif to GGG also abolished the binding ability. […] This is surprising, and provides a tool to track integrin α5β1 in endosome and lysosome.
(§4) Prior to measurements, streptavidin-coated biosensors were first equilibrated for at least 10 min in assay buffer. Protein binders with an N-terminal biotin were immobilized onto the biosensors by dipping them into a solution with 100 nM protein until the response reached between 10% and 50% of the maximum value followed by dipping sensors into fresh buffer to establish a baseline for 120 s. Titration experiments were performed at 25 degrees Celsius while rotating at 1000 rpm. Association of integrins was allowed by dipping biosensors in solutions containing designed protein diluted in buffer until equilibrium was approached followed by dissociation by dipping the biosensors into fresh buffer solution to monitor the dissociation kinetics.

integrin α5β1 [3] = molecular target: T6, integrin α5β1; test: BLI (Octet), minibinder on the sensor, integrin α5β1 in solution at labelled concentrations up to 200 nM; buffer 1 mM Ca2+, 1 mM Mg2+, pH 5 [lower left panel]
Description: as §3, §4

integrin α5β1 [4] = molecular target: T6, integrin α5β1; test: BLI (Octet), 00179_v4.1 RGD→GGG on the sensor, integrin α5β1 in solution; 1 mM Ca2+, 1 mM Mg2+, pH 7.4 [lower right panel]
Description: as §3, §4

HUVECs = test: Scratch-wound cell migration assay; type: cell-based, human; settings: 20 nM, 12 hours, compared to PBS control
Description: FIG. 2. (A) BLI binding affinity traces for minibinder or ^8RGD^10/GGG mutant against α5β1 in indicated buffers. Minibinder affinity to integrin α5β1 is dependent on metal ion presence and RGD motif. All affinity data was collected by Octet™ R8 and binding affinity was estimated by the Octet™ ForteBio software package. (B) Minibinder has no detectable affinity in presence of 500 nM or 1000 nM integrin αvβ1, αvβ3, αvβ6, αvβ8 and α8β1. (C) Cell surface titration of minibinder 4584_V5.3 and 00179_v4.1 against K562 cells wild type. […] Integrin α5 subunit and β1 subunit were stained with integrin α5 and active integrin β1 subunit specific antibody, respectively. (E) Quantification of (D). Quantification was counted as a percentage of mb-sheets that colocalized with staining of a5 and b1, a5 only, b1 only, or none; 30-35 sheets were counted in each biological repeat. […] Minibinders were added to HUVEC cells at 0, 0.1, 1, 10, and 100 nM. Vascular stability was analyzed at 12-h timepoints. 20 images were taken in each well at random locations. The scale bar is 100 μm. (G) Quantification of (F). The number of nodes, meshes, and tubes from images in (F) were quantified using an angiogenesis analyzer plug-in in ImageJ. Statistical significance of each were analyzed using One-way Anova Bonferroni's multiple comparison test. […] The wound area of T0 and T12 time points were quantified using imageJ and level of cell migration were calculated using this equation (AreaT0-T12)/AreaT0, all samples were normalized to PBS as fold change.
The inhibitory effect of 20 nM soluble 00179_v4.1 on cell migration was assessed using the scratch-wound assay. HUVECs were seeded with either 00179_v4.1 or PBS (used as a […] control) for 12 hours before capturing images for analysis.

B1: xw_a5b1_00179_v4.1 (designed binder)
chain: SELIIHGRGDFPSSELERLRERFERLGIKVRVDHKVLTLIGISEEEAERLARELRKRGIWVEIRK
modifications: also: N-terminal avi-tag/biotin for BLI, His6 tag at N- or C-terminus, tag sequences not given here
notes: a His6 tag stood at the N- or C-terminus
binding result (integrin α8β1): no binding (tested: 500 nM)
binding result (integrin αvβ1): no binding (tested: 500 nM)
binding result (integrin αvβ3): no binding (tested: 500 nM)
binding result (integrin αvβ8): no binding (tested: 500 nM)
EC50 (read off the curve) [1]: ~2 nM
Kd (integrin α5β1 [2]): 0.3 nM
Kd (integrin α5β1 [3]): 40 nM

B2: 8RGD10/GGG mutant of minibinder 00179_v4.1 (designed binder)
chain: Biotin-SELIIHGGGGFPSSELERLRERFERLGIKVRVDHKVLTLIGISEEEAERLARELRKRGIWVEIRK
notes: also called RGD/GGG mutant
binding result (integrin α5β1 [4]): no binding (tested: 1000 nM)

B3: xw_a5b1_004584v5.3 (designed binder)
chain: GEVEVHGRGDIPRSSLELFEKVAKELGLKVERNHRTVTVKGVSEEQIRELEEVAKKLGLWVLVRVTE
notes: Tags of the construct as assayed are not specified
binding result [1]: binds

B4: C6-mb: hexamer formed by mixing 00179_v4.1_N-term-LHD101A (SEQ ID NO:16) and C6-71-9-1_101B (SEQ ID NO:17) at 6:1 ratio (protein)
chain 1: MSGRQEKVLKSIEETVRKMGVTMETHRSGNEVKVVIKGLHIKQQRQLYRDVRETSKKQGVETEIEVEGDTVTIVVREGGSGGSELIIHGRGDFPRSELERLRERFERLGIKVRVDHKVLTLIGISEEEAERLARELRKRGIWVEIRKGSGSHHWGSTHHHHHH
chain 2: MGRQEKVLKSIEETVRKMGVTMETHRSGNEVKVVIKGLHESQQEQLLEDVLRTAEKQGVRVRIRFKGDTVTIVVREGSPEEILERAKESLERAKEAFERGDEEEFRKAAEKALELAKRLVEQAKKEGDPELVFEAARVALWVAWLAAWFGDKEVFKKAAESALEVAKRLVEVAKEEGDPELVLKAAFVALLVAIMAVILGDKEVFKKAAESALEVAKRLVEIAAREGDPELVEEAAKVAELVRELAKLMGDEEVYEKARETAREVRLFLLFVRIWEGGGGSLEHHHHHH
modifications: 6:1 hexameric assembly; VARIANT 1 optionally absent; VARIANT 148..163 optionally absent; VARIANT 282..289 optionally absent
cell migration (HUVECs): even more pronounced inhibition of cell migration
cell migration (HUVECs; listed as C6-oligomer): inhibits cell migration
